Experimental findings from the supplement of paper PMC9112550, “Optimization of the antimicrobial peptide Bac7 by deep mutational scanning” (BMC Biology, 2022) are described below.

This data set relates to Escherichia coli TOP10. In words: shrunken log2 fold change of peptide-encoding DNA abundance (4.5 h post-induction vs induction); higher = less antimicrobial activity (less host growth inhibition). The following applies: time post-induction: 4.5 h; library: site-saturation at positions 5, 18, 19, 20.
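Further: peptides expressed intracellularly from a pBAD plasmid library in pooled LB shake-flask culture, induced with 0.3% L-arabinose, DNA abundance read by NGS, three biological replicates, DESeq2 with apeglm shrinkage.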

In the case of RRIRRRPPRLPRPRPRPTFPPRP, the “shrunken log2 fold change” value stood at 0.444. Then RRIRNRPPRLPRPRPRPHTCPRP, with 0.0167; and RRIRTRPPRLPRPRPRPIYMPRP, with -0.442.

Take RRIRCRPPRLPRPRPRPWEEPRP: the “shrunken log2 fold change” value came to 0.0492. Then RRIRFRPPRLPRPRPRPCTGPRP, with 0.0368; and RRIRDRPPRLPRPRPRPLNKPRP, with -0.295. Then RRIRPRPPRLPRPRPRPLCAPRP, with 0.119; and RRIRGRPPRLPRPRPRPWSFPRP, with -0.113; and RRIRARPPRLPRPRPRPVTEPRP, with 0.154.

For the sequence RRIRIRPPRLPRPRPRPDAGPRP, the “shrunken log2 fold change” value turned out to be 0.158.

As to RRIRKRPPRLPRPRPRPHDWPRP, the “shrunken log2 fold change” value was determined as 0.31.

Take RRIRWRPPRLPRPRPRPGVLPRP: the “shrunken log2 fold change” value is 0.0321. The value for RRIRVRPPRLPRPRPRPFAIPRP was -0.765; that for RRIRQRPPRLPRPRPRPAWHPRP was 0.0212.

As to RRIRWRPPRLPRPRPRPGGDPRP, the “shrunken log2 fold change” value was 0.556. For the sequence RRIRGRPPRLPRPRPRPQDAPRP, the “shrunken log2 fold change” value was 0.832.

Regarding RRIRGRPPRLPRPRPRPPTNPRP, the “shrunken log2 fold change” value was determined as 0.866. Then RRIRWRPPRLPRPRPRPQMCPRP, with 0.349; and RRIRCRPPRLPRPRPRPAEFPRP, with -0.0616. Turning to RRIRQRPPRLPRPRPRPTFSPRP, the “shrunken log2 fold change” value was -0.0427. Then RRIRFRPPRLPRPRPRPMRYPRP, with 0.0824; and RRIRKRPPRLPRPRPRPAPPPRP, with 1.04; and RRIRFRPPRLPRPRPRPGRWPRP, with 0.653. RRIRLRPPRLPRPRPRPCVNPRP: the “shrunken log2 fold change” value was -0.00681. The value for RRIRLRPPRLPRPRPRPYSKPRP was -0.434; that for RRIRNRPPRLPRPRPRPHHQPRP was -1.12. Then RRIRHRPPRLPRPRPRPSNNPRP, with -0.549; and RRIRPRPPRLPRPRPRPCKSPRP, with -0.0854. The value for RRIRWRPPRLPRPRPRPAGHPRP was -0.0472; that for RRIRDRPPRLPRPRPRPLSNPRP was -0.247. Regarding RRIRTRPPRLPRPRPRPSVRPRP, the “shrunken log2 fold change” value was -0.155. Then RRIRKRPPRLPRPRPRPLARPRP, with 0.213; and RRIRRRPPRLPRPRPRPGLWPRP, with 0.622; and RRIRLRPPRLPRPRPRPYIEPRP, with -0.176. In the case of RRIRKRPPRLPRPRPRPTFAPRP, the “shrunken log2 fold change” value was 0.673. The value for RRIRSRPPRLPRPRPRPSYAPRP was -0.835; that for RRIRCRPPRLPRPRPRPMPWPRP was 0.0515.

As to RRIRPRPPRLPRPRPRPDNRPRP, the “shrunken log2 fold change” value was 0.0191.

Regarding RRIRSRPPRLPRPRPRPSETPRP, the “shrunken log2 fold change” value is -0.44.

In the case of RRIRRRPPRLPRPRPRPCHGPRP, the “shrunken log2 fold change” value was -0.589. The value for RRIRYRPPRLPRPRPRPQGWPRP was 0.031; that for RRIRARPPRLPRPRPRPWSPPRP was 0.138; that for RRIRFRPPRLPRPRPRPMNFPRP was -0.283. Then RRIRLRPPRLPRPRPRPCRIPRP, with -0.0656; and RRIRCRPPRLPRPRPRPVHWPRP, with -0.21; and RRIRGRPPRLPRPRPRPALAPRP, with 1.17. The value for RRIRPRPPRLPRPRPRPDWDPRP was 0.00947.

Take RRIRMRPPRLPRPRPRPGLEPRP: the “shrunken log2 fold change” value came out at 1.61. Take RRIRARPPRLPRPRPRPFNPPRP: the “shrunken log2 fold change” value was -0.432. Regarding RRIRKRPPRLPRPRPRPGFKPRP, the “shrunken log2 fold change” value was -0.0198.

RRIRSRPPRLPRPRPRPYNFPRP: the “shrunken log2 fold change” value was -0.36. The value for RRIRVRPPRLPRPRPRPRLDPRP was 0.238.

Regarding RRIRWRPPRLPRPRPRPKYIPRP, the “shrunken log2 fold change” value was -0.0755.

With RRIRWRPPRLPRPRPRPRWYPRP, the “shrunken log2 fold change” value was -0.0387. The value for RRIRKRPPRLPRPRPRPQPCPRP was 0.192. As to RRIRTRPPRLPRPRPRPLTFPRP, the “shrunken log2 fold change” value was -0.203. As to RRIRHRPPRLPRPRPRPLLTPRP, the “shrunken log2 fold change” value was -0.338.

As for RRIRRRPPRLPRPRPRPSVYPRP, the “shrunken log2 fold change” value was -0.0412. The value for RRIRLRPPRLPRPRPRPYWSPRP was -1.41; that for RRIRPRPPRLPRPRPRPKRNPRP was 0.142; that for RRIRLRPPRLPRPRPRPHYWPRP was -0.356. As to RRIRIRPPRLPRPRPRPADRPRP, the “shrunken log2 fold change” value was -0.123.

Take RRIRSRPPRLPRPRPRPNRMPRP: the “shrunken log2 fold change” value amounted to 0.309. The value for RRIRIRPPRLPRPRPRPQSLPRP was -0.321; that for RRIRWRPPRLPRPRPRPQGAPRP was 0.988; that for RRIRHRPPRLPRPRPRPADRPRP was -0.0209. Regarding RRIRIRPPRLPRPRPRPLWRPRP, the “shrunken log2 fold change” value came to 0.156.

Turning to RRIRCRPPRLPRPRPRPFWVPRP, the “shrunken log2 fold change” value was 0.0496. The value for RRIRYRPPRLPRPRPRPTDTPRP was -0.392. The value for RRIRERPPRLPRPRPRPGQDPRP was -0.0237; that for RRIRSRPPRLPRPRPRPADNPRP was 0.00328; that for RRIRGRPPRLPRPRPRPTAIPRP was 0.974. Then RRIRTRPPRLPRPRPRPECDPRP, with -0.134; and RRIRKRPPRLPRPRPRPCGPPRP, with -0.0191.

Consider RRIRRRPPRLPRPRPRPCEDPRP, for which the “shrunken log2 fold change” value is 0.0155.

For RRIRERPPRLPRPRPRPLWFPRP, the “shrunken log2 fold change” value worked out at 0.174. The value for RRIRDRPPRLPRPRPRPCMSPRP was -0.256; that for RRIRFRPPRLPRPRPRPNTQPRP was -0.309; that for RRIRPRPPRLPRPRPRPAQIPRP was 0.175. Take RRIRFRPPRLPRPRPRPPVYPRP: the “shrunken log2 fold change” value is -0.124. Then RRIRCRPPRLPRPRPRPEHKPRP, with -0.221. Consider RRIRCRPPRLPRPRPRPWTTPRP, for which the “shrunken log2 fold change” value is -0.138.

As to RRIRARPPRLPRPRPRPIDRPRP, the “shrunken log2 fold change” value was -0.027. The value for RRIRPRPPRLPRPRPRPQTGPRP was 0.142; that for RRIRWRPPRLPRPRPRPTFRPRP was -0.0799; that for RRIRHRPPRLPRPRPRPALAPRP was 0.24. Then RRIRARPPRLPRPRPRPCRMPRP, with -0.353.

In the case of RRIRRRPPRLPRPRPRPGKGPRP, the “shrunken log2 fold change” value worked out at 0.609. The value for RRIRLRPPRLPRPRPRPSICPRP was -0.0314; that for RRIRWRPPRLPRPRPRPRKCPRP was 0.4; that for RRIRNRPPRLPRPRPRPSYWPRP was -0.145. The value for RRIRCRPPRLPRPRPRPTWWPRP was 0.294. RRIRKRPPRLPRPRPRPPVTPRP: the “shrunken log2 fold change” value came to 0.39. RRIRFRPPRLPRPRPRPDIDPRP: the “shrunken log2 fold change” value turned out to be 0.0707. Then RRIRERPPRLPRPRPRPHSRPRP, with -0.0374; and RRIRMRPPRLPRPRPRPTPQPRP, with 1.31. The value for RRIRKRPPRLPRPRPRPPYYPRP was -0.291; that for RRIRERPPRLPRPRPRPWIRPRP was -0.667; that for RRIRKRPPRLPRPRPRPVQHPRP was 0.134. The value for RRIRGRPPRLPRPRPRPPKFPRP was 0.0991.

Regarding RRIRCRPPRLPRPRPRPMPCPRP, the “shrunken log2 fold change” value is -0.688. The value for RRIRKRPPRLPRPRPRPYALPRP was -0.119.

In the case of RRIRMRPPRLPRPRPRPVDGPRP, the “shrunken log2 fold change” value worked out at 1.08. Take RRIRDRPPRLPRPRPRPNCWPRP: the “shrunken log2 fold change” value is -0.113.

As for RRIRLRPPRLPRPRPRPCLMPRP, the “shrunken log2 fold change” value is -0.266. Then RRIRNRPPRLPRPRPRPSFQPRP, with -0.274; and RRIRMRPPRLPRPRPRPWMNPRP, with -0.00973; and RRIRHRPPRLPRPRPRPSFYPRP, with -1.09.

Regarding RRIRFRPPRLPRPRPRPVPYPRP, the “shrunken log2 fold change” value is -0.693.

As for RRIRRRPPRLPRPRPRPLEHPRP, the “shrunken log2 fold change” value is 0.21. Then RRIRKRPPRLPRPRPRPWGQPRP, with 0.0379; and RRIRERPPRLPRPRPRPTPFPRP, with -0.211; and RRIRNRPPRLPRPRPRPYSEPRP, with -2.12. Take RRIRSRPPRLPRPRPRPCLHPRP: the “shrunken log2 fold change” value is -0.0514. Then RRIRNRPPRLPRPRPRPGYEPRP, with 0.0608; and RRIRPRPPRLPRPRPRPTPEPRP, with 0.277; and RRIRPRPPRLPRPRPRPEWGPRP, with 0.42. Then RRIRMRPPRLPRPRPRPKWPPRP, with 1.18. Then RRIRHRPPRLPRPRPRPFIIPRP, with -0.00662.

For the sequence RRIRGRPPRLPRPRPRPCKFPRP, the “shrunken log2 fold change” value was 0.125. For the sequence RRIRSRPPRLPRPRPRPTEHPRP, the “shrunken log2 fold change” value is -0.0545. Then RRIRYRPPRLPRPRPRPGWPPRP, with 0.0827. Then RRIRQRPPRLPRPRPRPMWHPRP, with -0.18; and RRIRNRPPRLPRPRPRPFTHPRP, with -0.374. As for RRIRNRPPRLPRPRPRPLIPPRP, the “shrunken log2 fold change” value is -0.208.
